Data as given in the supplement of paper PMC9233669.
Variants at the floor of the assay were thinned out.

Legend:
biotinyl-Phe-oxazolone = assay: self-aminoacylation, catalytic enhancement (BFO) (fold over background); higher = more active; k-Seq, kA / k0A0; sequences stand for … in GGGAAUGGAUCCACAUCUACGAAUUC…UUCACUGCAGACUUGACGAAGCUG
Method in brief: (§1)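 Mutagenized RNA pools with a 21-nt variable region (0.43 μM) were reacted with each biotinyl-aminoacyl-oxazolone at 2–1250 μM for 90 minutes at room temperature, in 50 μL HEPES/NaCl/KCl/MgCl2/CaCl2 buffer containing 5% acetonitrile at pH 6.9–7.0. RNA captured on streptavidin was quantified by triplicate qPCR and by Illumina sequencing. The fraction reacted for each sequence was fit to a pseudo-first-order model with bootstrapping, and catalytic enhancement is the median kA divided by the uncatalyzed rate, taken as the low-activity peak of a bimodal Gaussian fit.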

biotinyl-Ile-oxazolone = assay: self-aminoacylation, catalytic enhancement (BIO) (fold over background); higher = more active; k-Seq, kA / k0A0; sequences stand for … in GGGAAUGGAUCCACAUCUACGAAUUC…UUCACUGCAGACUUGACGAAGCUG
Method in brief: as §1

biotinyl-Met-oxazolone = assay: self-aminoacylation, catalytic enhancement (BMO) (fold over background); higher = more active; k-Seq, kA / k0A0; sequences stand for … in GGGAAUGGAUCCACAUCUACGAAUUC…UUCACUGCAGACUUGACGAAGCUG
Method in brief: as §1

biotinyl-Val-oxazolone = assay: self-aminoacylation, catalytic enhancement (BVO) (fold over background); higher = more active; k-Seq, kA / k0A0; sequences stand for … in GGGAAUGGAUCCACAUCUACGAAUUC…UUCACUGCAGACUUGACGAAGCUG
Method in brief: as §1

biotinyl-Leu-oxazolone = assay: self-aminoacylation, catalytic enhancement (BLO) (fold over background); higher = more active; k-Seq, kA / k0A0; sequences stand for … in GGGAAUGGAUCCACAUCUACGAAUUC…UUCACUGCAGACUUGACGAAGCUG
Method in brief: as §1

biotinyl-Trp-oxazolone = assay: self-aminoacylation, catalytic enhancement (BWO) (fold over background); higher = more active; k-Seq, kA / k0A0; sequences stand for … in GGGAAUGGAUCCACAUCUACGAAUUC…UUCACUGCAGACUUGACGAAGCUG
Method in brief: as §1

Row | Sequence | self-aminoacylation (biotinyl-Phe-oxazolone) | self-aminoacylation (biotinyl-Ile-oxazolone) | self-aminoacylation (biotinyl-Met-oxazolone) | self-aminoacylation (biotinyl-Val-oxazolone) | self-aminoacylation (biotinyl-Leu-oxazolone) | self-aminoacylation (biotinyl-Trp-oxazolone)
1 | CCACACUUGAAGCAAUCGGUA [Fam1B.1 aminoacylation ribozyme variant] | 0.696 | 1.07 | 0.976 | 1.25 | 1.13 | 0.948
2 | CUACUUCAAUCAUUCGGUCUG [Fam1A.1 aminoacylation ribozyme variant] | 0.652 | 1.1 | 0.805 | 0.992 | 0.896 | 1.13
3 | CUACUGCAAACAAUCGGGCUG [Fam1A.1 aminoacylation ribozyme variant] | 8.54 | 1.74 | 1.69 | 1.98 | 1.61 | 0.887
4 | AAGUUUGCUAAUAGUCCCCAG [Fam3.1 aminoacylation ribozyme variant] | 1.27 | 1 | 1.01 | 0.901 | 0.928 | 1.69
5 | CUACUUCAAUCAACCGGUCUG [Fam1A.1 aminoacylation ribozyme variant] | 0.9 | 0.925 | 0.525 | 0.806 | 0.729 | 0.663
6 | AAUUUUGCUAAUAGUCGCGAG [Fam3.1 aminoacylation ribozyme variant] | 8.52 | 2.28 | 1.99 | 1.51 | 1.7 | 2.02
7 | AAGUCUGCUAAUAGUCGCCAG [Fam3.1 aminoacylation ribozyme variant] | 1.8 | 1.1 | 1.34 | 1.32 | 1.04 | 3.43
8 | CCACACUUCAAGCAAUCGUCC [Fam1B.1 aminoacylation ribozyme variant] | 1.57 | 0.54 | 0.412 | 0.652 | 0.518 | 1.06
9 | AACUUUGCUAAUAGCCGCAAG [Fam3.1 aminoacylation ribozyme variant] | 2.77 | 2.25 | 2.28 | 1.93 | 2.23 | 2.14
10 | CAACACUUCAAGCAAUCGGUA [Fam1B.1 aminoacylation ribozyme variant] | 1.44 | 1.25 | 1.15 | 1.14 | 1.13 | 1.23
11 | AUUCACCUAUGUCAUCGGGUU [Fam2.2 aminoacylation ribozyme variant] | 0.724 | 1.35 | 1.48 | 1.61 | 1.86 | 1.75
12 | AGUCACCUAGGUCAUCGGCUG [Fam2.2 aminoacylation ribozyme variant] | 18.9 | 2.5 | 2.18 | 2.59 | 2.27 | 3
13 | AAUAUUGCUAAUAGUCGCAAG [Fam3.1 aminoacylation ribozyme variant] | 2.4 | 1.86 | 1.68 | 1.76 | 1.7 | 1.95
14 | CGACUUCAAACAAUCGGGCUG [Fam1A.1 aminoacylation ribozyme variant] | 10.4 | 2.45 | 2.05 | 2.73 | 2.34 | 12.7
15 | AAGUUUGCUAAUAGUCUGAAG [Fam3.1 aminoacylation ribozyme variant] | 3.77 | 1.01 | 0.971 | 1.07 | 0.996 | 1.34
16 | AUUACCCUGAUCAUCGAGUUA [Fam2.1 aminoacylation ribozyme variant] | 0.549 | 1.02 | 0.824 | 1.11 | 0.958 | 0.61
17 | AUUCAUCUAGGUCAACGGGUG [Fam2.2 aminoacylation ribozyme variant] | 29.6 | 2.6 | 4.08 | 2.61 | 5.32 | 3.23
18 | AAUUUUGUUAAUAGUCGCAAG [Fam3.1 aminoacylation ribozyme variant] | 2.48 | 2.04 | 2.05 | 1.72 | 1.93 | 2.56
19 | CUACUUCAAAGAAUCCGUCUG [Fam1A.1 aminoacylation ribozyme variant] | 0.744 | 1.06 | 0.942 | 0.915 | 1.07 | 0.738
20 | CUUGACCUAGGUCAUCGGGUG [Fam2.2 aminoacylation ribozyme variant] | 23.2 | 3.43 | 3.39 | 3.87 | 4.42 | 5.2
21 | AUUACCCUGGACAUCGAGUGC [Fam2.1 aminoacylation ribozyme variant] | 1.19 | 0.87 | 0.807 | 0.852 | 0.793 | 0.573
22 | CUACUUCAAACAUUCGGUCAG [Fam1A.1 aminoacylation ribozyme variant] | 0.674 | 0.901 | 0.886 | 0.992 | 0.861 | 0.688
23 | CUUUACCUAGGUCAUCGGGUG [Fam2.2 aminoacylation ribozyme variant] | 25.3 | 3.85 | 5.23 | 3.71 | 7.1 | 5.46
24 | AUUACCCUGAUCAUCGGGUGA [Fam2.1 aminoacylation ribozyme variant] | 67.3 | 5.24 | 9.51 | 5.38 | 9.62 | 10.7
25 | CUACUUCAAACAAUGGGUCUA [Fam1A.1 aminoacylation ribozyme variant] | 0.65 | 0.847 | 0.611 | 0.756 | 0.638 | 0.487
26 | AUUACCCUUGACAUCGAGUGA [Fam2.1 aminoacylation ribozyme variant] | 50.8 | 4.31 | 10.8 | 5.25 | 11 | 13.5

Row | Sequence | self-aminoacylation (biotinyl-Phe-oxazolone) | self-aminoacylation (biotinyl-Ile-oxazolone) | self-aminoacylation (biotinyl-Met-oxazolone) | self-aminoacylation (biotinyl-Val-oxazolone) | self-aminoacylation (biotinyl-Leu-oxazolone) | self-aminoacylation (biotinyl-Trp-oxazolone)
27 | CCACACAUCAGGCAAUCGGUC [Fam1B.1 aminoacylation ribozyme variant] | 1.15 | 1.25 | 1.03 | 1.3 | 1.12 | 0.806
28 | CCGCACUCCAAGCAAUCGGUC [Fam1B.1 aminoacylation ribozyme variant] | 6.39 | 1.14 | 0.991 | 1.7 | 0.931 | 5.87
29 | ACGUUUGCUAAUAGUCACAAG [Fam3.1 aminoacylation ribozyme variant] | 3.82 | 1.34 | 0.95 | 1.39 | 1.15 | 1.82
30 | CCACACUUCAAGCGAUCGGGC [Fam1B.1 aminoacylation ribozyme variant] | 1.07 | 2.4 | 2.65 | 2.89 | 1.64 | 3.13
31 | AAGUUUGCUAAAAGUCGCAAU [Fam3.1 aminoacylation ribozyme variant] | 1.15 | 1.24 | 1.37 | 1.17 | 0.929 | 1.69
32 | AAGCCUGCUAAUAGUCGCAAG [Fam3.1 aminoacylation ribozyme variant] | 37.3 | 1.86 | 1.61 | 1.77 | 1.64 | 11.1
33 | AUUCACCUAGCUCAACGGGUG [Fam2.2 aminoacylation ribozyme variant] | 6.75 | 1.37 | 1.88 | 1.36 | 2.28 | 1.95
34 | CCACGCUUCAAGCAAUGGGUC [Fam1B.1 aminoacylation ribozyme variant] | 0.735 | 0.646 | 0.537 | 0.656 | 0.627 | 0.419
35 | AUUCACCUAGUCCAUCGGGUG [Fam2.2 aminoacylation ribozyme variant] | 40.5 | 3.54 | 6.16 | 3.82 | 6.98 | 6.38
36 | CUACACUUCAAGCACUCGGUC [Fam1B.1 aminoacylation ribozyme variant] | 0.867 | 0.886 | 0.786 | 0.945 | 0.757 | 0.614
37 | CUACUUCACACAACCGGUCUG [Fam1A.1 aminoacylation ribozyme variant] | 1.07 | 0.858 | 1.2 | 1.01 | 0.892 | 0.778
38 | AUUAACCUGGUCAUCGAGAGA [Fam2.1 aminoacylation ribozyme variant] | 0.933 | 0.888 | 0.749 | 0.783 | 0.844 | 0.872
39 | AAGUUUGCUAAUAGUCGCGAC [Fam3.1 aminoacylation ribozyme variant] | 1.05 | 0.944 | 1 | 0.909 | 0.907 | 1.19
40 | AUUACGCUGGUCAUCGAGUGC [Fam2.1 aminoacylation ribozyme variant] | 1.4 | 1.02 | 1.44 | 1.33 | 1.31 | 1.24
41 | AUUCACCUAGGUGAUCGGGGG [Fam2.2 aminoacylation ribozyme variant] | 21.6 | 5.84 | 4.53 | 4.72 | 5.33 | 7.47
42 | AUUACGCUGGCCAUCGAGUGA [Fam2.1 aminoacylation ribozyme variant] | 32.4 | 4.5 | 6.9 | 4.76 | 5.89 | 8.46
43 | CUACUUCAAACAAUAGGUCUU [Fam1A.1 aminoacylation ribozyme variant] | 0.985 | 0.947 | 0.75 | 0.828 | 0.827 | 0.538
44 | UUACUUCAAACAAUCGGUCUC [Fam1A.1 aminoacylation ribozyme variant] | 31.6 | 1.2 | 1.17 | 1.04 | 1.4 | 17.2
45 | CUACUUCCACCAAUCGGUCUG [Fam1A.1 aminoacylation ribozyme variant] | 0.84 | 0.912 | 0.684 | 0.877 | 0.793 | 0.387
46 | AUUACCCUGGCCAUCGAUUGA [Fam2.1 aminoacylation ribozyme variant] | 0.28 | 0.753 | 1.03 | 0.974 | 0.851 | 0.913
47 | AAGUAUGCUAGUAGUCGCAAG [Fam3.1 aminoacylation ribozyme variant] | 2.22 | 1.26 | 1.22 | 1.35 | 0.756 | 1.12
48 | AUUCCCCUAGUCAUCGAGUGA [Fam2.1 aminoacylation ribozyme variant] | 66.1 | 6.5 | 11.5 | 7.18 | 11.6 | 15.3
49 | CCACACAUCAAGCAAUCGGCC [Fam1B.1 aminoacylation ribozyme variant] | 4.94 | 2.66 | 1.65 | 2.9 | 2.25 | 2.88
50 | CUCCUUCAAACCAUCGGUCUG [Fam1A.1 aminoacylation ribozyme variant] | 1.69 | 0.815 | 0.805 | 0.977 | 0.781 | 0.905
51 | AUUCACUUAGGUCAUCGGGUG [Fam2.2 aminoacylation ribozyme variant] | 48.3 | 3.87 | 6.36 | 3.86 | 8.1 | 6.28
